Data from US20150086555A1.

How the values were obtained:
Settings in all cases: remark: other sources report otherwise
[1] = biological target: recombinant soluble homotrimeric HA of A/swine/Ontario/01911-2/99 (H4N6) (Influenza A virus A/Swine/Ontario/01911-2/99 (H4N6)); experiment: HA microarray, BCC supernatant
[2] = biological target: recombinant soluble homotrimeric HA of A/Solomon Islands/3/06 (H1N1) (Influenza A virus A/Solomon Islands/3/2006(H1N1)); experiment: HA microarray, BCC supernatant
[3] = biological target: recombinant soluble homotrimeric HA of A/Vietnam/1203/04 (H5N1) (Influenza A virus A/VietNam/1203/2004(H5N1)); experiment: HA microarray, BCC supernatant
[4] = biological target: recombinant soluble homotrimeric HA of A/chicken/Vietnam/NCVD-016/08 (H5N1) (Influenza A virus A/chicken/Vietnam/NCVD-016/2008(H5N1)); experiment: HA microarray, BCC supernatant
[5] = biological target: recombinant soluble homotrimeric HA of A/Netherlands/219/03 (H7N7) (Influenza A virus A/Netherlands/219/03(H7N7)); experiment: HA microarray, BCC supernatant
[6] = biological target: recombinant soluble homotrimeric HA of A/Anhui/1/05 (H5N1) (Influenza A virus A/Anhui/1/2005(H5N1)); experiment: HA microarray, BCC supernatant
[7] = biological target: recombinant soluble homotrimeric HA of A/California/4/09 (H1N1) (Influenza A virus A/California/04/2009(H1N1)); experiment: HA microarray, BCC supernatant
[8] = biological target: recombinant soluble homotrimeric HA of A/northern shoveler/California/HKWF115/07 (H6) (Influenza A virus A/northern shoveler/California/HKWF115/2007(H6N1)); experiment: HA microarray, BCC supernatant
[9] = biological target: recombinant soluble homotrimeric HA of A/Japan/305/57 (H2N2) (Influenza A virus A/Japan/305/1957(H2N2)); experiment: HA microarray, BCC supernatant
[10] = biological target: recombinant soluble homotrimeric HA of A/duck/Yangzhou/02/05 (H8N4) (Influenza A virus A/duck/Yangzhou/02/2005(H8N4)); experiment: HA microarray, BCC supernatant
[11] = biological target: recombinant soluble homotrimeric HA of A/Indonesia/5/05 (H5N1) (Influenza A virus A/Indonesia/5/2005(H5N1)); experiment: HA microarray, BCC supernatant
[12] = biological target: recombinant soluble homotrimeric HA of A/Wisconsin/67/05 (H3N2) (Influenza A virus A/Wisconsin/67/2005(H3N2)); experiment: HA microarray, BCC supernatant
[13] = biological target: recombinant soluble homotrimeric HA of A/Hong Kong/2108/03 (H9N2) (Influenza A virus A/HK/2108/2003(H9N2)); experiment: HA microarray, BCC supernatant
[14] = biological target: recombinant homotrimeric HA A/South Carolina/1/18 H1N1 (Influenza A virus A/South Carolina/1/18 (H1N1)); experiment: protein microarray, purified IgG, trimeric HA
[15] = biological target: recombinant homotrimeric HA A/Netherlands/219/03 H7N7 (Influenza A virus A/Netherlands/219/03(H7N7)); experiment: protein microarray, purified IgG, trimeric HA
[16] = biological target: recombinant homotrimeric HA A/Solomon Islands/3/06 H1N1 (Influenza A virus A/Solomon Islands/3/2006(H1N1)); experiment: protein microarray, purified IgG, trimeric HA
[17] = biological target: recombinant homotrimeric HA A/Japan/305/57 H2N2 (Influenza A virus A/Japan/305/1957(H2N2)); experiment: protein microarray, purified IgG, trimeric HA
[18] = biological target: recombinant homotrimeric HA A/northern shoveler/California/HKWF115/07 H6N4 (Influenza A virus A/northern shoveler/California/HKWF115/2007(H6N1)); experiment: protein microarray, purified IgG, trimeric HA
[19] = biological target: recombinant homotrimeric HA A/Hong Kong/1073/99 H9N2 (Influenza A virus A/Hong Kong/1073/99 (H9N2)); experiment: protein microarray, purified IgG, trimeric HA
[20] = biological target: recombinant homotrimeric HA A/chicken/Vietnam/NCVD-016/08 H5N1 (Influenza A virus A/chicken/Vietnam/NCVD-016/2008(H5N1)); experiment: protein microarray, purified IgG, trimeric HA
[21] = biological target: recombinant homotrimeric HA A/Egypt/3300-NAMRU3/08 H5N1 (Influenza A virus A/Egypt/3300-NAMRU3/2008(H5N1)); experiment: protein microarray, purified IgG, trimeric HA
[22] = biological target: recombinant homotrimeric HA A/Hong Kong/2108/03 H9N2 (Influenza A virus A/HK/2108/2003(H9N2)); experiment: protein microarray, purified IgG, trimeric HA
[23] = biological target: recombinant homotrimeric HA A/Vietnam/1203/04 H5N1 (Influenza A virus A/VietNam/1203/2004(H5N1)); experiment: protein microarray, purified IgG, trimeric HA
[24] = biological target: recombinant homotrimeric HA A/Wisconsin/67/05 H3N2 (Influenza A virus A/Wisconsin/67/2005(H3N2)); experiment: protein microarray, purified IgG, trimeric HA
[25] = biological target: recombinant homotrimeric HA A/Anhui/1/05 H5N1 (Influenza A virus A/Anhui/1/2005(H5N1)); experiment: protein microarray, purified IgG, trimeric HA
[26] = biological target: recombinant homotrimeric HA A/Indonesia/5/05 H5N1 (Influenza A virus A/Indonesia/5/2005(H5N1)); experiment: protein microarray, purified IgG, trimeric HA
[27] = biological target: recombinant homotrimeric HA A/California/4/09 H1N1 (Influenza A virus A/California/04/2009(H1N1)); experiment: protein microarray, purified IgG, trimeric HA
[28] = biological target: recombinant homotrimeric HA A/Hong Kong/156/97 H5N1 (Influenza A virus A/Hong Kong/156/97 (H5N1)); experiment: protein microarray, purified IgG, trimeric HA

B1: TCN-557 (5081_A04) (antibody, V domains shown)
VH: QVQLVQSGAEVKKPGASVKVSCKASGHTFTGYYIHWVRQAPGQGLEWMGWINPDSGATSSAQNFQGRVTMTGDTSSSTAYMELSRLSFDDTAVYYCARVLFTSPFDFWGEGTLVTVSS
VL: QAVVTQEPSLAVSPGGTVTLTCGSSTGAVTRGHYPYWFQQKPGQAPRALIYDSAGNRHSWTPARFSGSLLGGKAALTLSGAQPEDEAEYYCLLSYSGVWVFGGGTKLTVL
**Q.** Which results are given for B1?
**A.** Trimeric HA Binding: RLU [1]: 27000 RLU; Trimeric HA Binding: RLU [2]: 40700 RLU; Trimeric HA Binding: RLU [3]: 47300 RLU; Trimeric HA Binding: RLU [4]: 45500 RLU; Trimeric HA Binding: RLU [5]: 6780 RLU; Trimeric HA Binding: RLU [6]: 46000 RLU; Trimeric HA Binding: RLU [7]: 17600 RLU; Trimeric HA Binding: RLU [8]: 24400 RLU; Trimeric HA Binding: RLU [9]: 43400 RLU; Trimeric HA Binding: RLU [10]: 50100 RLU; Trimeric HA Binding: RLU [11]: 45200 RLU; Trimeric HA Binding: RLU [12]: 10200 RLU; Trimeric HA Binding: RLU [13]: 35300 RLU; Trimeric HA Binding: RLU [14]: 3590 RLU; Trimeric HA Binding: RLU [15]: 7250 RLU; Trimeric HA Binding: RLU [16]: 22700 RLU; Trimeric HA Binding: RLU [17]: 28900 RLU; Trimeric HA Binding: RLU [18]: 12600 RLU; Trimeric HA Binding: RLU [19]: 440 RLU; Trimeric HA Binding: RLU [20]: 25400 RLU; Trimeric HA Binding: RLU [21]: 23600 RLU; Trimeric HA Binding: RLU [22]: 7660 RLU; Trimeric HA Binding: RLU [23]: 25400 RLU; Trimeric HA Binding: RLU [24]: 327 RLU; Trimeric HA Binding: RLU [25]: 22000 RLU; Trimeric HA Binding: RLU [26]: 23300 RLU; Trimeric HA Binding: RLU [27]: 1170 RLU; Trimeric HA Binding: RLU [28]: 22800 RLU
